Experimental data taken from US6875741.
No end group written: not given here.

Assays:
[1] = target: soluble human insulin receptor-immunoglobulin heavy chain chimera (human), P06213; experiment: ratio of IC50 on rhIGF-1R (TR-FRET vs b-20E2) to IC50 on sIR-Fc (FP vs FITC-RP9); conditions: remark: other sources report otherwise
[2] = target: soluble human insulin receptor-immunoglobulin heavy chain chimera (human) (UniProt P06213); experiment: phage ELISA ratios compared
[3] = target: soluble human insulin receptor-immunoglobulin heavy chain chimera (human) (UniProt P06213); experiment: phage ELISA over milk background
[4] = target: insulin receptor prepared according to Bass et al., 1996 (soluble IR) (human) (UniProt P06213); experiment: phage ELISA; A405 on IR / A405 on non-fat milk
soluble IGF-1R [5] = target: soluble IGF-1R (UniProt P08069); experiment: phage ELISA; A405 on IGF-1R / A405 on non-fat milk
soluble IGF-1R [6] = target: soluble IGF-1R (UniProt P08069); experiment: phage ELISA; IGF-1R ratio over background divided by IR ratio
[7] = target: insulin receptor prepared according to Bass et al., 1996 (soluble IR) (human) (UniProt P06213); experiment: phage ELISA; IR ratio over background divided by IGF-1R ratio

| Binder | Binding Ratio IGF-1R/IR [1] | IR/IGF-1R ratio comparison [2] | ratio over background [3] | ratio over background (fold over background) [4] | ratio over background (fold over background) (soluble IGF-1R [5]) | IGF-1R/IR ratio comparison (soluble IGF-1R [6]) | IR/IGF-1R ratio comparison [7] |
| --- | --- | --- | --- | --- | --- | --- | --- |
| CWARPCGDAANFYDWFVQQAS [C1 (D112)] | 0.19 | – | – | – | – | – | – |
| RGAVAGFHDQFYDWFDRQVSRVHKFG [H2CA-4-H9-IGFR] | – | 0.3 | 1.9 | – | – | – | – |
| LQPCSGFYECIERLIGVKLSG [20E2Bβ-4-G7-IR] | – | 0.1 | 1.6 | – | – | – | – |
| RCEEKQAEVGPSSDPFYHKMSELLGCR [B6Hα-3-E9-IR] | – | 0.1 | 1.7 | – | – | – | – |
| SSYGCDGFYLMLFSLGLVASQELEC [20C-3-A1-IGFR] | – | 0.1 | 1.5 | – | – | – | – |
| RGMKEEVLVGGSTDPFYHKLSELLQGS [B6Hα-3-F11-IR] | – | 0.1 | 1.6 | – | – | – | – |
| GGTEVDFYRALERLVRGQLGL [20E2B-3-D8-IGFR] | – | 0.1 | 1.6 | – | – | – | – |
| LRIANLFYQRLWDLAFGGGG [20E2B-3-E8-IGFR] | – | 0.1 | 1.5 | – | – | – | – |
| QPAPDGFYSALMKLIGRGGVS [20E2B-3-C8-IGFR] | – | 0.1 | 1.8 | – | – | – | – |
| QPDHSYFYSLLQELVGSEERL [20E2B-4-F9-IGFR] | – | 0.1 | 1.9 | – | – | – | – |
| IIGGFYSYFNSVLRLGT [NNRPγ-4-A1-IR] | – | 0.2 | 1.8 | – | – | – | – |
| GCVVEWQKWHGASDPFYHKLSELGGCS [B6Hα-3-F10-IR] | – | 0.2 | 1.9 | – | – | – | – |
| MMVVDGFYDALHQLVVAQSLG [20E2A-3-D10-IGFR] | – | 0.3 | 1.8 | – | – | – | – |
| GGTKAVAKVGTRDDPFYHKLSELLQGS [B6Hα-4-G8-IR] | – | 0.3 | 1.7 | – | – | – | – |
| DYKDSRVAATKEKRPSDDPFYHKLSELLQGSAAAGAP (peptide, not shown: large carriers) [B6Hα-3-F7-IR] | – | – | – | 1 | 3.1 | 3.1 | 0.3 |
| DYKDSSETAKMVTGTRDDPFYHKLSELVQGSAAAGAP (peptide, not shown: large carriers) [B6Hα-2-D8-IR] | – | – | – | 1 | 3 | – | – |

| Binder | Binding Ratio IGF-1R/IR [1] | IR/IGF-1R ratio comparison [2] | ratio over background [3] | ratio over background (fold over background) [4] | ratio over background (fold over background) (soluble IGF-1R [5]) | IGF-1R/IR ratio comparison (soluble IGF-1R [6]) | IR/IGF-1R ratio comparison [7] |
| --- | --- | --- | --- | --- | --- | --- | --- |
| DYKDGCITAENGAGDPFYHKLSELGGCSAAAGAP (peptide, not shown: large carriers) [B6Hα-1-B3-IR] | – | – | – | 1.1 | 3.2 | 2.9 | 0.3 |
| DYKDRCGDEEGWQENRRDDPFYHKLSELFGGCAAAGAP (peptide, not shown: large carriers) [B6Hα-3-E5-IR] | – | – | – | 1 | 2.9 | 2.9 | 0.3 |
| DYKDMNVFVSFYDAIDQLVCQRIGCAAAGAP (peptide, not shown: large carriers) [20E2A-4-G11-IGFR] | – | – | – | 1.3 | 3.3 | 2.6 | 0.4 |
| DYKDQSGSGDFYDWLSRLIRGNGDGAAAGAP (peptide, not shown: large carriers) [20E2Bβ-3-C7-IR] | – | – | – | 1.5 | 3.1 | 2 | 0.5 |
| DYKDCGAKMTGTPNDPFYHKLSELLQRGAAAGAP (peptide, not shown: large carriers) [B6Hα-3-E6-IR] | – | – | – | 1.2 | 2.3 | 1.9 | 0.5 |
| DYKDGHYFGSFYDAIDQLVAGMLPGAAAGAP (peptide, not shown: large carriers) [20E2A-3-A3-IGFR] | – | – | – | 1.5 | 3 | – | – |
| DYKDAGTPAQVGXNRLWSVWPGEHWNTVDPFYNKLSELLRESGAAAAGAP (peptide, not shown: large carriers, not fully specified; X: residue not identified in the source) [B6L-4-A7-IR] | – | – | – | 1.9 | 3.4 | 1.8 | – |
| DYKDCSMAAVAEAGDDDDPFYHKLSELCQGSAAAGAP (peptide, not shown: large carriers) [B6Hα-3-F1-IR] | – | – | – | 1.3 | 2.4 | 1.8 | 0.5 |
| DYKDVDTPAQVGWNRLWSVGPGEHWYTDDPFYHXLSELLRESGAAAAGAP (peptide, not shown: large carriers, not fully specified; X: residue not identified in the source) [B6L-3-G6-IR] | – | – | – | 1.8 | 2.5 | 1.4 | – |
| DYKDAETSAQVGWQRLWSVWPGDHWSTLDPFYHKLSELLRESGAAAAGAP (peptide, not shown: large carriers) [B6L-3-G5-IR] | – | – | – | 1.4 | 2 | 1.4 | 0.7 |
| DYKDAGSVTSFYDAMEQLVATGTSAAAAGAP (peptide, not shown: large carriers) [20E2A-3-A4-IGFR] | – | – | – | 1.8 | 2.5 | 1.4 | – |
| DYKDLSCLAYSRHGIWRPSTDLGLGRSVGEGSVSTRWRGYDWFEAAAGAP (peptide, not shown: large carriers) [40F-4-D1-IGFR] | – | – | – | 0.3 | 4.6 | 13.1 | 0.1 |
| DYKDGLDHSDAVGVHLGFAWPAQARGRWEAGGLEDTWAGYDWLAAAGAP (peptide, not shown: large carriers) [40F-4-B1-IGFR] | – | – | – | 0.2 | 3 | – | – |
| YRGMLVLGRSSDGAGKVAFERPARIGQTVFAVNFYDWFV [A6L-0-E6-IR] | – | 0.1 | 1.8 | – | – | – | – |
| YRGMLVLGRISGGAGKAASERPARIGQKVSAVNFYDWFV [A6L-0-H3-IR] | – | 0.1 | 2 | – | – | – | – |
